From patent US20240376226A1 (JANUX THERAPEUTICS, published 2024) come the findings set out here.

The target of this assay is T1, CD3 (UniProt P07766 23-126).
T1 construct: also called CD3-biotin; CD3 biotin
Nature of the assay: ELISA, antibody titrated on captured antigen. In general terms: ELISA stands for enzyme-linked immunosorbent assay.

T1 sequence (P07766 23-126): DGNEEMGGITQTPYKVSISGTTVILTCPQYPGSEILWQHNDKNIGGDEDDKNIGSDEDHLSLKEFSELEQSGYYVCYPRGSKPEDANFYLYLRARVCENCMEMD

B1: SP34 (Ab-9, Ab-10) (antibody, mouse IgG1, V domains shown)
VH: EVQLVESGGGLVQPKGSLKLSCAASGFTFNTYAMNWVRQAPGKGLEWVARIRSKYNNYATYYADSVKDRFTISRDDSQSILYLQMNNLKTEDTAMYYCVRHGNFGNSYVSWFAYWGQGTLVTVSS
VL: QAVVTQESALTTSPGETVTLTCRSSTGAVTTSNYANWVQEKPDHLFTGLIGGTNKRAPGVPARFSGSLIGDKAALTITGAQTEDEAIYFCALWYSNLWVFGGGTKLTVLQ
notes: used naked or chemically biotinylated; also called SP34-biotin
B1 came in with an EC50 below 1 nM.

By EC50 is commonly meant the concentration giving half of the maximal effect. Read a high EC50 as a less potent agent.
